This passage reports Kd results from paper PMC9263355, “Galectin-3 Decreases 4-1BBL Bioactivity by Crosslinking Soluble and Membrane Expressed 4-1BB” (Frontiers in Immunology, 2022).

The target of this assay is T1, recombinant human (rh)4-1BB Fc chimera protein (human, UniProt Q07011 24-186).
T1 construct: human 4-1BB (CD137/TNFRSF9), the part of it in the R&D Systems Fc chimera; Glycosylated; also called CD137; TNFRSF9; source: bought: R&D Systems
In words: fluorescence polarisation; fluorescence anisotropy in solution, by inhibition: fixed galectin (0.2-2.5 µM) with 0.02 µM of its fluorescent probe, in the presence of 0.07-4.75 µM (rh)4-1BB Fc or (rh)IgG1 Fc; average Kd from the points with ≥ 15% inhibition. The following applies: both partners purified. Background: In fluorescence polarisation assays a small probe gives low polarisation when free and higher when bound to something large.

T1 sequence (Q07011 24-186, change not shown): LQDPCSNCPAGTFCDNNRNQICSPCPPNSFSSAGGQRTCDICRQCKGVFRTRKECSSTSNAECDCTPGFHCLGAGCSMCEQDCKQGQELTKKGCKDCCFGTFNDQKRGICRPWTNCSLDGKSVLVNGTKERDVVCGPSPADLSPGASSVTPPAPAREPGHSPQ

B1: recombinant human galectin-2 (natural protein, UniProt P05162 1-132, looked up)
chain: MTGELEVKNMDMKPGSTLKITGSIADGTDGFVINLGQGTDKLNLHFNPRFSESTIVCNSLDGSNWGQEQREDHLCFSPGSEVKFTVTFESDKFKVKLPDGHELTFPNRLGHSHLSYLSVRGGFNMSSFKLKE
notes: human galectin-2; also called Gal-2
In the case of B1, the Kd came to 6.12 µM.

Broadly, the Kd is the equilibrium constant for the complex coming apart.
